Experimental data taken from patent US20230106083A1, “SILICON-FLUORIDE HETEROAROMATIC SYSTEMS FOR APPLICATIONS IN POSITRON EMISSION TOMOGRAPHY (PET) MOLECULAR IMAGING” (The Regents of the University of California, priority 2019, published 2023).
Read-outs that look alike come from different tables or passages of the source.

Legend:
[1] = Stability screen of HetSiFA [^18F]-12 in acetonitrile (RCC by radio-TLC over time); type: physicochemical; settings: room temperature, 1.8 mg (9.4 μmol) Et4NHCO3 used for elution
Description: Isotopic exchange reactions were conducted in 1 mL Eppendorf tube containing hetroarylfluorosilanes 1 in dry acetonitrile (3 mM stock solution, 50 μL). […] An aliquot of the crude reaction mixture was spotted on a silica gel coated TLC plate, developed in a glass chamber using [^18F]fluoride Het Si tBu tBu F Het Si tBu tBu ^18F Et4NHCO3 CH3CN, 23° C. 1 [^18F]-1 S15 acetonitrile (100%) or acetonitrile:water (95:5) as the eluent and analyzed by radio-TLC using a miniGITA*TLC scanner. The radiochemical conversion (RCC) was calculated by dividing the integrated area of the ^18F-fluorinated product peak by the total integrated area of all peaks on the TLC and multiplying by 100 to convert to percentage units. Isotopic exchange and purity was confirmed by analytical HPLC by co-injecting with the 19F-reference standard (UV absorbance at 254 nm). An aliquot of the crude reaction mixture (10 μL) was added to the 19F-reference standard (1 mg/mL) in acetonitrile (10 μL) and the sample was injected into the analytical HPLC.
[^18F]TEAF was obtained by eluting fluoride ion with high base or low base, following the protocol described above.

[2] = MicroPET/CT biodistribution of [^18F]-17 in normal mice (ROI quantification); type: in vivo, C57BL6 mice; settings: for tissue uptake at 1 h / tissue uptake at 2 h: C57BL/6, mouse; for tissue uptake at 2 h: 2 h post-injection
Description: Micropositron emission tomography-computed tomography (microPET/CT) imaging studies were performed in normal mice to investigate the in vivo stability of the silicon-fluorine bond in the Heteroaromatic silicon fluoride acceptor peptide conjugate, [^18F]-17. Reformulated [^18F]-17 (2.2 MBq) was injected via the tail vein into C57BL/6 mice (n=3), and microPET/CT scans were acquired. […] Alternatively, the GI activity may also be a result of this particular peptide, for which the full cholecystokinin construct plays important roles in stimulating digestion within the GI system.
Animal studies were approved by the UCLA Animal Research Committee and carried out according to the guidelines of the Department of Laboratory Animal Medicine at UCLA. Female C57BL6 mice were injected intravenously via tail vein with approximately 2.2 MBq (60 μCi) of [^18F]-17. Animals were kept warm on heating pads throughout the imaging procedures. At 1 and 2 h after tracer injection, mice were anesthetized with 2% isoflurane in oxygen and placed in dedicated Genisys8 imaging chambers for PET/CT imaging on the Genisys8 PET/CT (Sofie Biosciences). PET scans were acquired for 10 min with an energy window of 150-650 keV reconstructed using ML-EM, followed by CT acquisition. All PET images were corrected for CTbased photon attenuation, detector normalization and radioisotope decay (scatter correction was not applied) and converted to units of percent injected dose per gram (% ID/g). Images were analyzed by drawing regions-of-interest (ROI) in select tissues using AMIDE v1.0.5. See e.g. Loening et al., Mol. Imaging 2003, 3, 131.

In the case of `CC(C)(C)[Si](F)(c1cc2cccc(C(=O)O)c2s1)C(C)(C)C` [[^18F]-12, 2-(di-tertbutylfluorosilyl) benzo[b]thiophene-7-carboxylic acid], the “RCC (stability screen)” value ([1]; 2 min) is reported as 95%, the “RCC (stability screen)” value ([1]; 5 min) is reported as 96% and the “RCC (stability screen)” value ([1]; 15 min) is reported as 97%. The “RCC (stability screen)” value ([1]; 30 min) was 97% and the “RCC (stability screen)” value ([1]; 60 min) was 97%.
With `CSCC[C@H](NC(=O)[C@H](Cc1c[nH]c2ccccc12)NC(=O)CN1CCN(CC(=O)O)CCN(CC(=O)O)CCN(CC(=O)O)CC1)C(=O)N[C@@H](CC(=O)NCCOCCOCCOCCNC(=O)c1cccc2cc([Si](F)(C(C)(C)C)C(C)(C)C)sc12)C(=O)N[C@@H](Cc1ccccc1)C(N)=O` [[^18F]-17] the “Biodistribution, Muscle” value ([2]; PET quantification, 1 h post-injection, i.v. tail vein, C57BL6 mice) was 0.36 % ID/g, the tissue uptake at 1 h ([2]; female, GI tract, iv, 2.2 MBq, total radioactivity, PET quantification, 1 h post-injection, i.v. tail vein, C57BL6 mice, read-out: Biodistribution, GI) was 107 ± 24 %ID/g and the tissue uptake at 2 h ([2]; female, GI tract, iv, 2.2 MBq, total radioactivity, PET quantification, i.v. tail vein, C57BL6 mice, read-out: Biodistribution, GI) was 122 ± 48 %ID/g. The tissue uptake at 1 h ([2]; female, bladder, iv, 2.2 MBq, total radioactivity, PET quantification, 1 h post-injection, i.v. tail vein, C57BL6 mice, read-out: Biodistribution, Bladder) was 35 ± 12 %ID/g, the tissue uptake at 2 h ([2]; female, bladder, iv, 2.2 MBq, total radioactivity, PET quantification, i.v. tail vein, C57BL6 mice, read-out: Biodistribution, Bladder) was 30 ± 7 %ID/g and the tissue uptake at 1 h ([2]; female, bone (knee), iv, 2.2 MBq, total radioactivity, PET quantification, 1 h post-injection, i.v. tail vein, C57BL6 mice, read-out: Biodistribution, Bone (knee)) was 8 ± 0.65 %ID/g. For the same molecule, the tissue uptake at 2 h ([2]; female, bone (knee), iv, 2.2 MBq, total radioactivity, PET quantification, i.v. tail vein, C57BL6 mice, read-out: Biodistribution, Bone (knee)) was 8.2 ± 0.56 %ID/g, the tissue uptake at 1 h ([2]; female, brain, iv, 2.2 MBq, total radioactivity, PET quantification, 1 h post-injection, i.v. tail vein, C57BL6 mice, read-out: Biodistribution, Brain) was 0.44 ± 0.06 %ID/g and the tissue uptake at 2 h ([2]; female, brain, iv, 2.2 MBq, total radioactivity, PET quantification, i.v. tail vein, C57BL6 mice, read-out: Biodistribution, Brain) was 0.33 ± 0.03 %ID/g. It also gave a tissue uptake at 1 h ([2]; female, gallbladder, iv, 2.2 MBq, total radioactivity, PET quantification, 1 h post-injection, i.v. tail vein, C57BL6 mice, read-out: Biodistribution, Gallbladder) of 33 ± 14 %ID/g, a tissue uptake at 2 h ([2]; female, gallbladder, iv, 2.2 MBq, total radioactivity, PET quantification, i.v. tail vein, C57BL6 mice, read-out: Biodistribution, Gallbladder) of 28 ± 9 %ID/g and a tissue uptake at 1 h ([2]; female, heart, iv, 2.2 MBq, total radioactivity, PET quantification, 1 h post-injection, i.v. tail vein, C57BL6 mice, read-out: Biodistribution, Heart) of 2 ± 0.25 %ID/g. The tissue uptake at 2 h ([2]; female, heart, iv, 2.2 MBq, total radioactivity, PET quantification, i.v. tail vein, C57BL6 mice, read-out: Biodistribution, Heart) was 1.2 ± 0.26 %ID/g, the tissue uptake at 1 h ([2]; female, kidney, iv, 2.2 MBq, total radioactivity, PET quantification, 1 h post-injection, i.v. tail vein, C57BL6 mice, read-out: Biodistribution, Kidney) was 2.9 ± 0.62 %ID/g and the tissue uptake at 2 h ([2]; female, kidney, iv, 2.2 MBq, total radioactivity, PET quantification, i.v. tail vein, C57BL6 mice, read-out: Biodistribution, Kidney) was 2.2 ± 0.38 %ID/g. It also gave a tissue uptake at 1 h ([2]; female, liver, iv, 2.2 MBq, total radioactivity, PET quantification, 1 h post-injection, i.v. tail vein, C57BL6 mice, read-out: Biodistribution, Liver) of 5 ± 0.07 %ID/g, a tissue uptake at 2 h ([2]; female, liver, iv, 2.2 MBq, total radioactivity, PET quantification, i.v. tail vein, C57BL6 mice, read-out: Biodistribution, Liver) of 2.4 ± 0.47 %ID/g and a tissue uptake at 1 h ([2]; female, muscle, iv, 2.2 MBq, total radioactivity, PET quantification, 1 h post-injection, i.v. tail vein, C57BL6 mice, read-out: Biodistribution, Muscle) of 0.36 ± 0.06 %ID/g. The tissue uptake at 2 h ([2]; female, muscle, iv, 2.2 MBq, total radioactivity, PET quantification, i.v. tail vein, C57BL6 mice, read-out: Biodistribution, Muscle) was 0.27 ± 0.11 %ID/g, the tissue uptake ([2]; female, mouse, bone, iv, 2.2 MBq, total radioactivity, FIG. 6, time not given, C57BL/6 mice) was 8 %ID/g and the clearance route ([2]; microPET/CT images, C57BL/6 mice, 2.2 MBq via tail vein) was “initial clearance of [^18F]-17 via the kidneys, followed by the reabsorption of radiometabolites and the subsequent hepatobiliary clearance”. The plasma clearance ([2]; microPET/CT, C57BL/6 mice, 2.2 MBq via tail vein) was “rapid plasma clearance”.
